Source: publication PMC10521239 (Protein Science : A Publication of the Protein Society, 2023)

Molecular target: HPC4 tagged human fIX without the gamma-carboxyglutamic (GLA) domain, wild type (Homo sapiens)
Assay: ELISA

Sequence of HPC4 tagged human fIX without the gamma-carboxyglutamic (GLA) domain, wild type (Homo sapiens) (P00740 93-461): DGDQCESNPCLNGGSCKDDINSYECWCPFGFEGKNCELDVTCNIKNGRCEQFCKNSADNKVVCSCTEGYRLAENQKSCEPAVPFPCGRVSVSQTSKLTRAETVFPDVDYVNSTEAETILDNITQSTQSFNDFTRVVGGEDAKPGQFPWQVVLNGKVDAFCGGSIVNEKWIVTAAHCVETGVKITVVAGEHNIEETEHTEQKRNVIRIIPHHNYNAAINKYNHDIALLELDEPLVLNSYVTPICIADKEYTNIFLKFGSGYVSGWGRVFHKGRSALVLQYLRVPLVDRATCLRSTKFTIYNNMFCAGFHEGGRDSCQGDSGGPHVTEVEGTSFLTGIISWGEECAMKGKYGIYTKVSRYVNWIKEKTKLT

binding result: binds
B1: anti-fIXa NN-8895 full-length mAb (antibody, V domains shown)
VH: EVQLVESGGGLVQPGRSLRLSCAASGFIFDDYAMHWVRQVPGKGLEWVSGISWNSDNIGYVDSVKGRFTISRDNAKNSLYLQMNSLRIEDTALYYCAKAFGSGSYYNGFDYWGQGALVTVSS
VL: DIQMTQSPSTLSASAGDRVTISCRASQSISSWLAWYQQKPGKAPKLLIYKASSLESGVPSRFSGSGSGTEFTLTISSLQPDDFATYYCQEYNSYIRTFGQGTKVEIK
